A word on the Ki: it is the equilibrium dissociation constant of an inhibitor or competing ligand from its target. Read a high Ki as a looser hold on the target. One may read the Km as the substrate concentration at which the rate is half of its maximum.

“And” between values parts separate entries of the source, which are not always exact repeats. Equal values may be shown once.

In assay [1] the target is T1, Ruminococcus flavefaciens strain 17 (Siijpesteijn 1948) xylose isomerase, native (XI-R), SEQ ID NO: 31 (gene SEQ ID NO: 29/30) (Ruminococcus flavefaciens, UniProt Q9S306).
T1 construct: made in house; host or cells: Saccharomyces cerevisiae BY4742 (p426GPD); soluble whole cell extract, not purified
T1 sequence (Q9S306 1-438): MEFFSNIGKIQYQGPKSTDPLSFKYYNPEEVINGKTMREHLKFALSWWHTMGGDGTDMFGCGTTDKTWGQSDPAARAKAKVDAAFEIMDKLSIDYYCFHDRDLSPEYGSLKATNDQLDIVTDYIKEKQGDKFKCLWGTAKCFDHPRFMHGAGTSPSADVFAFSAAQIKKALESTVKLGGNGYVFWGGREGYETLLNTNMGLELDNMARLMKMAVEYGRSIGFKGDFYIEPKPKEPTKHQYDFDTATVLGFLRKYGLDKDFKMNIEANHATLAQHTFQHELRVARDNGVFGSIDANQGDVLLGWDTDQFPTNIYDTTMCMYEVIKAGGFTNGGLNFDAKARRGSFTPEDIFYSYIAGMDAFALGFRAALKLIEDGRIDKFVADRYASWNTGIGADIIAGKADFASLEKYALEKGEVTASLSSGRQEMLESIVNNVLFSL
The assay can be described thus: Xylose isomerase kinetics (SDH-coupled, NADH, A340), with and without xylitol. The class given is biochemical. The note with it: about 0 to about 50 mM xylitol; pH 7.5, about 30° C. The protocol:
(§1) About 20 μg of soluble whole cell extract was incubated in the presence of 100 mM Tris, pH 7.5, 10 mM MgCl2, 0.15 mM NADH (Sigma, St. Louis, Mo.), and about 2 U sorbitol dehydrogenase (Roche) at about 30° C. […] A Beckman DU-800 was utilized with an Enzyme Mechanism software package (Beckman Coulter, Inc.), and the change in the A340 was monitored for 2-3 minutes.
(§2) Approximately 20 μg of soluble whole cell extract from each transformed cell line, prepared using Y-PER plus reagent as described above, was incubated in a solution containing about 100 mM Tris, pH 7.5, 10 mM MgCl ? 2, 0.15 mM NADH (Sigma, St. Louis, Mo.), and 2 U Sorbitol Dehydrogenase (SDH) (Roche, Indianapolis, Ind.) at about 30° C. […] A Beckman DU-800 spectrophotometer was utilized with an Enzyme Mechanism software package (Beckman Coulter, Inc, Brea, Calif.), and the change in the A340 was monitored for 2-3 minutes. […]
(§3) Approximately 20 μg of soluble whole cell extract from each transformed cell line was prepared using Y-PER plus reagent as described above was incubated in a solution containing about 100 mM Tris, pH 7.5, 10 mM MgCl ? […] A Beckman DU-800 spectrophotometer was utilized with an Enzyme Mechanism software package (Beckman Coulter, Inc, Brea, Calif.), and the change in the A340 was monitored for 2-3 minutes.

Assay [2] has as its target T2, Piromyces strain E2 xylose isomerase, native (XI-P), SEQ ID NO: 35 (gene SEQ ID NO: 34) (Piromyces sp. E2, UniProt A0ACD6B9F5).
T2 construct: soluble whole cell extract; SDH-coupled
The description is as above. The class given is biochemical. The note with it: about 0 to about 50 mM xylitol; pH 7.5, about 30° C. The protocol: as §1, §2, §3

In assay [3] the test system is Ruminococcus flavefaciens FD-1 (Ruminococcus_FD1) xylose isomerase, SEQ ID NO: 110. As to the kind of experiment: Kinetics of additional xylose isomerase candidates (Km and specific activity). It is filed as biochemical. The note with it: xylose 40 to 500 nM; crude S. cerevisiae extract. From the text:
The results are show in FIG. 25.

The target in assay [4] is T3, Ruminococcus flavefaciens xylose isomerase, codon-optimized gene variant (XI-R-COOP), gene SEQ ID NO: 33 (Ruminococcus flavefaciens, UniProt Q9S306).
T3 sequence (Q9S306 1-438): T1 sequence (Q9S306 1-438)
As to the kind of experiment: Xylose isomerase kinetics (SDH-coupled, NADH, A340), with and without xylitol. The class given is biochemical. The settings on record: xylose about 40 to about 500 mM; pH 7.5, about 30° C. As for the experimental part:
An additional variant of the native R. flavefaciens xylose isomerase gene (XI-R-COOP) was prepared in which all of the codons were optimized for expression in Saccharomyces cerevisiae. This variant gene was synthesized by IDT DNA Inc. and the sequence is set forth below as SEQ ID NO: 33.

The subject of assay [5] is xylose. As to the kind of experiment: Industrial yeast strain BF903 with Ruminococcus xylose isomerase: sealed serum bottles on YP plus xylose (xylose utilization, ethanol, cell growth). The class given is cell-based, Saccharomyces cerevisiae. The settings on record: FIG. 12. The protocol:
The serum bottles were sealed with a butyl rubber stopper to prevent air exchange. As a result, the cultures became anaerobic once the available oxygen in the serum bottle was utilized. In general, anaerobiosis (e.g., the onset of anaerobic conditions) occurred a few hours after the culture was inoculated. Xylose utilization, ethanol production and cell growth were measured every twenty four hours.

Assay [6] concerns xylose isomerase activity. As to the kind of experiment: Heterologous xylose isomerase expression in engineered yeast (active yes/no). The settings on record: xylose isomerase of the donor organism expressed in engineered yeast (S. cerevisiae).
Assay [7] relates to xylose. As to the kind of experiment: Industrial yeast strain BF903 with Ruminococcus xylose isomerase: aerobic growth and xylose consumption on YP-xylose. The class given is cell-based, Saccharomyces cerevisiae. The settings on record: commercial yeast strain BF903, YP-xylose, 30° C., 7 days, FIG. 11. The protocol:
A commercially available industrial diploid strain of Saccharomyces cerevisiae (strain BF903; “Stillspirits” triple distilled yeast, Brewcraft, Albany, New Zealand; available at Hydrobrew, Oceanside, Calif.) was obtained and was made competent for transformation using known yeast cell transformation procedures. […] Transformed yeast containing each construct were grown overnight aerobically in a 15 ml culture tube on YPD media containing 2% glucose. After about 24 hours, about 25 ml of YP media containing 2% glucose and 100 μg/ml G418 was seeded with the cells at an initial OD600 of 0.5 in a 250 ml Erlenmeyer flask and grown aerobically at 30° C. The cultures were then passaged once every 7 days into fresh media, also at an initial OD600 of 0.5.
Measurements were taken of the cell optical density (OD600) to assess cell density and plated onto YPD with 100 μg/ml G418 to ensure that the plasmid was stable. […] The strains were then grown overnight in YPD (with 100 μg/ml G418) and used to inoculate about 50 ml YP-xylose (with 100 μg/ml G418) into disposable 250 ml Erlenmeyer flasks with vented caps at an initial OD600 of about 1. The cultures were allowed to grow aerobically at 30° C. at 200 rpm for 7 days.

The test system of assay [8] is xylose. As to the kind of experiment: In vivo evaluation of xylose isomerase constructs in C5 strain: xylose fermentation, aerobic then anaerobic (ethanol, xylose, glucose, OD600, dry cell weight). It is filed as cell-based, Saccharomyces cerevisiae. The note with it: final sample at 372 hours. From the text:
The engineered strain was designed to include the following genetic modifications: the native Pho13 gene (alkaline phosphatase specific for p-nitrophenyl phosphate) was disrupted by inserting a construct containing the native TLK1 gene (Transketolase-1); the native aldose reductase gene (Gre3) was disrupted by inserting a construct containing the native high-affinity glucose transporter-7 gene (HXT7); the native glucose-repressible alcohol dehydrogenase II gene (adh2) was disrupted by inserting a construct containing the native xylulokinase gene (XYLK); and the native orotidine-5′ phosphate decarboxylase gene (ura3) was disrupted by inserting a construct containing the native transaldolase 1 gene (TAL1). The resulting strain had the following genotype: pho13::TKL1, gre3::HXT7, adh-2::XYLK, ura3::TAL1.
The C5 strain was transformed using standard protocols with either p426GPD (as a control) or the chimeric variants XI-R, XI-Rp5, XI-Rp10, or XI-Rp15. The transformed cells were grown on SC-glucose minus uracil initially and then passaged onto SC-xylose minus uracil. Cultures of each of the above constructs were made in SC-xylose minus uracil—and grown for one week. The cultures were grown aerobically at 30° C. with 250 rpm agitation, 1 vvm sparge of process air, 21% O2. The pH was controlled at about 5.0 with 1N NaOH. […] At 24 hours elapsed fermentation time the fermentation was switched to anaerobic conditions. […] Oxygen was purged with 100% N2 sparge at 1 vvm until percent O2 was below 1%. Aeration was then set at 0.25 vvm 100% N2.
The final sample also measured biomass by dry cell weight.

T2 sequence (A0ACD6B9F5 1-437): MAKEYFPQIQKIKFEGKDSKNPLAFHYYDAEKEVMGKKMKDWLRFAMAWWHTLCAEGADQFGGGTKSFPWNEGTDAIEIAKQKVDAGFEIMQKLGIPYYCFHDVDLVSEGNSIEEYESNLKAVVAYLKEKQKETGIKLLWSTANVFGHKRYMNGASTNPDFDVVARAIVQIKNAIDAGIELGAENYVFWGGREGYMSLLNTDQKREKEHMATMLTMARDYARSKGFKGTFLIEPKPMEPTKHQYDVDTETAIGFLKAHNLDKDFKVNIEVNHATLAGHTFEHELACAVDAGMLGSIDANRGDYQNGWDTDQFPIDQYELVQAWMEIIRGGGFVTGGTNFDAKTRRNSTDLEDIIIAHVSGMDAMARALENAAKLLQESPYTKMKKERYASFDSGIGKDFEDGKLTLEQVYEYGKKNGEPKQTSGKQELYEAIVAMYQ

In the case of `OC[C@@H](O)[C@H](O)[C@@H](O)CO` [xylitol], the Ki in assay [1] turned out to be 43.6 mM; in assay [2] it was 4.79 mM.
In the case of `OC1OC[C@@H](O)[C@H](O)[C@H]1O` (some centres unmarked) [xylose], the Km in assay [3] was determined as 71.9 mM; in assay [4], 100 mM.

B1: Ruminococcus flavefaciens: native xylose isomerase from Ruminococcus flavefaciens strain 17 (SEQ ID NO: 31) (protein, listed as Ruminococcus flavefaciens)
chain: T1 sequence (Q9S306 1-438)
For B1, in the assay on xylose [5], the “cell density versus vector only control” value was “grew to a higher cell density” and the “ethanol production from xylose versus vector only control” value was “produced more ethanol”. Moreover, the “Active? (yes/no)” value in assay [6] is reported as “Yes”. Moreover, the “xylose consumption versus vector control” value with xylose [7] is “more efficient at consuming xylose”. In addition, the “Glucose” value in the assay with xylose [8] is 0 g/L. Further, in the assay with xylose [8] (listed as XI-R), the “Ethanol” value was 15.65 g/L and 15.5 g/L; the “Xylose” value was 3.14 g/L and 3.85 g/L.

(Values after patent US20110165660A1, “ENGINEERED MICROORGANISMS WITH ENHANCED FERMENTATION ACTIVITY” (VERDEZYNE, INC., priority 2009, published 2011).)
